Experimental findings from article PMC6959990 are described below.

The target in experiment [1] is wt PCAT1 (Clostridium thermocellum) (UniProt A3DCU1). As to the kind of experiment: native MS; in 200 mM ammonium acetate pH 7.5 with 0.5% C8E4 (2X CMC); 4 µM PCAT1 monomer alone, or 4 µM PCAT1(C21A) monomer + 8 µM CtA (two-fold excess of CtA); abundances corrected for gas-phase dissociation.
Experiment [2] shares this target. The experiment can be described thus: native MS; in 200 mM ammonium acetate pH 7.5 with 0.058% UDM (2X CMC); 4 µM PCAT1 monomer alone, or 4 µM PCAT1(C21A) monomer + 8 µM CtA (two-fold excess of CtA); abundances corrected for gas-phase dissociation.
The target of experiment [3] is PCAT1(C21A) (Clostridium thermocellum) (UniProt A3DCU1). The experiment can be described thus: native MS; in 200 mM ammonium acetate pH 7.5 with 0.5% C8E4 (2X CMC); 4 µM PCAT1 monomer alone, or 4 µM PCAT1(C21A) monomer + 8 µM CtA (two-fold excess of CtA); abundances corrected for gas-phase dissociation.
Experiment [4] has the same target. As to the kind of experiment: native MS; in 200 mM ammonium acetate pH 7.5 with 0.058% UDM (2X CMC); 4 µM PCAT1 monomer alone, or 4 µM PCAT1(C21A) monomer + 8 µM CtA (two-fold excess of CtA); abundances corrected for gas-phase dissociation.
Experiment [5] shares this target. As to the kind of experiment: cryo-EM structure; PCAT1(C21A) (5 mg/ml, 62 µM monomer) mixed with 62 µM refolded CtA, 30 min on ice, in UDM, no ATP.

As to “wt PCAT1 (from UniProt A3DCU1 1-727) (natural protein)”, the stoichiometry N in experiment [1] and in experiment [2] was 2 in each case.
As to “PCAT1(C21A) (from UniProt A3DCU1 1-727) (natural protein)”, the stoichiometry N in experiment [3] and in experiment [4] was 2 in each case.
CtA (natural protein): the stoichiometry N (CtA per PCAT1 transporter) in experiment [5] was 2. Also, in experiment [3], the % abundance of the C21A-PCAT1 dimer + 1 CtA complex worked out at 16%, the % abundance of the C21A-PCAT1 dimer + 2 CtA complex was 84% and the stoichiometry N (CtA per PCAT1 dimer) was found to be 2. In experiment [4], the % abundance of the C21A-PCAT1 dimer + 1 CtA complex amounted to 25%, the % abundance of the C21A-PCAT1 dimer + 2 CtA complex is 75% and the stoichiometry N (CtA per PCAT1 dimer) was determined as 2.
